Target: epidermal growth factor receptor (EGFR) (human, UniProt P00533 25-1210)
Assay: cell-based or functional assay

B1: EGF4 KDEL (ligand)
chain: MNSDSECPLSHDGYCLHDGVCMYIEALDKYACNCVVGYIGERCQYRDLKWWELRPSGQAGAAASESLFVSNHAYMGLTSQLLPPLFFLLACAGNFVHGHKCDITLQEIIKTLNSLTEQKTLCTELTVTDIFAASKNTTEKETFCRAATVLRQFYSHHEKDTRCLGATAQQFHRHKQLIRFLKRLDRNLWGLAGLNSCPVKEANQSTLENFLERLKTIMREKYSKCSSEASGGPEPEGGSLAALTAHQACHLPLETFTRHRQPRGWEQLEQCGYPVQRLVALYLAARLSWNQVDQVIRNALASPGSGGDLGEAIREQPEQARLALTLAAAESERFVRQGTGNDEAGAANADVVSLTCPVAAGECAGPADSGDALLERNYPTGAEFLGDGGDVSFSTRGTQNWTVERLLQAHRQLEERGYVFVGYHGTFLEAAQSIVFGGVRARSQDLDAIWRGFYIAGDPALAYGYAQDQEPDARGRIRNGALLRVYVPRSSLPGFYRTSLTLAAPEAAGEVERLIGHPLPLRLDAITGPEEEGGRLETILGWPLAERTVVIPSAIPTDPRNVGGDLDPSSIPDKEQAISALPDYASQPGKPPKDEL
  IC50, killing of MDA-MB-231 cells (3H-thymidine uptake assay): 2 pM
